Test results as given in patent US20250243243A1, “DISRUPTION OF SONIC HEDGEHOG-SURF4 INTERACTION FOR CANCER TREATMENT” (The Hong Kong University of Science and Technology, priority 2022, published 2025).

Legend:
[1] = biological target: T1, GST (Schistosoma japonicum, UniProt P08515); assay: Peptide binding assay: immobilized peptides, GST as prey, immunoblot; conditions: pull down, GST control prey
T1 construct: made in house; host or cells: E. coli
Protocol: (§1) Immunoprecipitation was performed as described (27). Purification of GST-tagged ShhN^25-49 and GST-tagged […] was performed as described previously (54). GST pull down assays were performed as described previously (54). Peptide binding assay was performed as described previously (27).
(§2) Peptide binding assay was performed as described previously (59). Synthetic CW peptides ([…]; SEQ ID NO: 6), CW^MT peptides ([…]; SEQ ID NO: 9), SURF4^49-61 peptides ([…]; SEQ ID NO: 10), SURF4^49-60 peptides ([…]; SEQ ID NO: 12), or RRFR peptides ([…]; SEQ ID NO: 11) were purchased from GenScript and coupled to thiopyridone-Sepharose 6B beads (Sigma-Aldrich) via the added C-terminal cysteine residue. For binding experiments, 2 ? g purified GST-tagged SURF4^49-60 or Shh^25-49-GST was preincubated at 4° C. for 30 min in a total volume of […] HK buffer. After incubation, […] buffer containing around 5 ? l beads containing 5 nmol of peptides was added to the reaction mixture for 1 h at 4° C. The beads were washed four times with […] of HK buffer and analyzed by immunoblotting.

[2] = biological target: T2, Shh^25-49-GST (Mus musculus, UniProt Q62226); assay: Peptide binding assay: immobilized SURF4 luminal peptides, Shh^25-49-GST as prey, immunoblot; design: species or system human; conditions: pull down, immunoblotting with anti-GST antibodies
T2 construct: C-terminal GST-tagged Shh^25-49; made in house; host or cells: E. coli
Protocol: as §1, §2

[3] = biological target: T3, interaction between ShhN and SURF4 (Mus musculus, UniProt Q62226); assay: GST pull down of SURF4-HA from HEK293T lysates by ShhN^25-49-GST in the presence of heparin; assay type: binding, human
T3 construct: Purified GST-tagged human ShhN^25-49 was incubated with lysates; made in house; host or cells: ShhN25-49-GST from E. coli; SURF4-HA in lysates of transfected HEK293T cells
Protocol: as §1
Purification of GST-tagged ShhN^25-49 and GST-tagged SURF4^49-60 was performed as described previously (58). GST pull down assays were carried out with 10 μl of compact GSH beads bearing around 5 ? g of GST-tagged ShhN^25-49. The beads were incubated with […] of 0.5 mg/ml of cell lysates from HEK293T cells transfected with HA-SURF4 in HKT buffer at pH 6.0 or 7.2 with mixing at 4° C. overnight. After incubation, the beads were washed three times with […] of HKT buffer and twice with […] of HK buffer, and the bound material was analyzed by immunoblotting.

[4] = biological target: T4, GST-SURF4^49-60 (Homo sapiens, UniProt O15260); assay: Peptide binding assay: peptides immobilized on thiopyridone sepharose 6B beads, GST-SURF4^49-60 as prey, immunoblot; conditions: pull down, immunoblotting with anti-GST antibodies
T4 construct: N-terminal GST-tagged SURF4^49-60; made in house; host or cells: E. coli
Protocol: as §1, §2

T3 sequence (Q62226 25-49): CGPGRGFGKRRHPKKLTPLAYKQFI
T1 sequence (P08515 whole entry): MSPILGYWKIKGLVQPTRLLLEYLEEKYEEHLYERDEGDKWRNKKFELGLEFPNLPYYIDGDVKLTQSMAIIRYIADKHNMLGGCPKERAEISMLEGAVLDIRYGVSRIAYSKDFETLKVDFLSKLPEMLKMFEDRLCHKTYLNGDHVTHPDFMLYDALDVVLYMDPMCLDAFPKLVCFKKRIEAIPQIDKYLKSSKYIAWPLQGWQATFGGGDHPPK

Question: Which “binding of GST to immobilized peptides” value [1] does the source give for “SURF4 luminal peptides: First luminal loop of SURF4, SEQRDYIDTTWNC (SEQ ID NO: 10)” here?
Answer: Its value is “not GST interacts”.

Question: What about the “interaction of Shh^25-49-GST with immobilized SURF4 luminal peptides” value [2] of the same substance?
Answer: Its value is “interacts”.

Question: Which results are given for heparin?
Answer: inhibition of the interaction between ShhN and SURF4 ([3]; indicated concentrations of heparin): inhibited the interaction between ShhN and SURF4 in a concentration-dependent manner; inhibition of the ShhN-SURF4 interaction at pH 6.0 ([3]; pH 6.0): still inhibits the ShhN-SURF4 interaction

Question: With “RRFR peptides: Peptides corresponding to the first intracellular loop of Frizzled6, VRRFRYPERPC (SEQ ID NO: 11)” as the substance, how does the “level of GST-SURF4^49-60 bound to immobilized peptides” value [4] read?
Answer: The value was “significantly lower than that bound to the CW peptides”.

Question: With “CW(KR-AA) peptides: Alanine substituted mutant of the CW peptide, AAAHPAAC (SEQ ID NO: 9)” as the substance, how does the “level of GST-SURF4^49-60 bound to immobilized peptides” value [4] read?
Answer: The value was “bound more efficiently to the wild-type CW sequence than an alanine substituted mutant”.
